From the supplement of paper PMC11246515
± gives the standard deviation of the averaged measurements.

Assay: total protein half-life in vivo (active degradation + dilution); higher = more stable protein
[1] = E. coli NCM3722 delta-clpP, growth: N-lim chemostat, doubling time 6 h
[2] = E. coli NCM3722 delta-hslV, growth: N-lim chemostat, doubling time 6 h
[3] = E. coli NCM3722 delta-smpB, growth: N-lim chemostat, doubling time 6 h
[4] = wild type E. coli NCM3722, growth: C-lim chemostat, doubling time 3 h
[5] = wild type E. coli NCM3722, growth: C-lim chemostat, doubling time 6 h
[6] = wild type E. coli NCM3722, growth: C-lim chemostat, doubling time 12 h
[7] = wild type E. coli NCM3722, growth: P-lim chemostat, doubling time 12 h
[8] = E. coli NCM3722 delta-clpP delta-lon delta-hslV, growth: N-lim chemostat, doubling time 6 h
[9] = E. coli NCM3722 delta-lon, growth: N-lim chemostat, doubling time 6 h
[10] = wild type E. coli NCM3722, growth: N-lim chemostat, doubling time 6 h
[11] = wild type E. coli NCM3722, growth: N-lim chemostat, doubling time 12 h
[12] = wild type E. coli NCM3722, growth: P-lim chemostat, doubling time 6 h

Sequence | total protein half-life in vivo [1] | total protein half-life in vivo [2] | total protein half-life in vivo [3] | total protein half-life in vivo [4] | total protein half-life in vivo [5] | total protein half-life in vivo [6] | total protein half-life in vivo [7] | total protein half-life in vivo [8] | total protein half-life in vivo [9] | total protein half-life in vivo [10] | total protein half-life in vivo [11] | total protein half-life in vivo [12]
MNTDTFMCSSDEKQTRSPLSLYSEYQRMEIEFRAPHIMPTSHWHGQVEVNVPFDGDVEYLINNEKVNINQGHITLFWACTPHQLTDTGTCQSMAIFNLPMHLFLSWPLDKDLINHVTHGMVIKSLATQQLSPFEVRRWQQELNSPNEQIRQLAIDEIGLMLKRFSLSGWEPILVNKTSRTHKNSVSRHAQFYVSQMLGFIAENYDQALTINDVAEHVKLNANYAMGIFQRVMQLTMKQYITAMRINHVRALLSDTDKSILDIALTAGFRSSSRFYSTFGKYVGMSPQQYRKLSQQRRQTFPG [P0ACH8] | 2.09 ± 0.21 h | 2.5 h | 1.89 h | 2.14 ± 0.34 h | 3.43 ± 0.17 h | 4.03 ± 0.28 h | 4.99 ± 1.6 h | – | – | – | – | –
MKRTMLYLSLLAVSCSVSAAKYPVLTESSPEKAGFNVERLNQMDRWISQQVDVGYPSVNLLIIKDNQIVYRKAWGAAKKYDGSVLMEQPVKATTGTLYDLASNTKMYATNFALQKLMSEGKLHPDDRIAKYIPGFADSPNDTIKGKNTLRISDLLHHSGGFPADPQYPNKAVAGALYSQDKGQTLEMIKRTPLEYQPGSKHIYSDVDYMLLGFIVESVTGQPLDRYVEESIYRPLGLTHTVFNPLLKGFKPQQIAATELNGNTRDGVIHFPNIRTSTLWGQVHDEKAFYSMGGVSGHAGLFSNTGDIAVLMQTMLNGGGYGDVQLFNAETVKMFTTSSKEDATFGLGWRVNGNATMTPTFGTLASPQTYGHTGWTGTVTVIDPVNHMTIVMLSNKPHSPVADPQKNPNMFESGQLPIATYGWVVDQVYAALKQK | – | – | 5.13 ± 0.61 h | 3.15 ± 0.17 h | 6.3 ± 0.47 h | 10.4 ± 1.3 h | – | 6.01 ± 1.4 h | 5.56 ± 0.55 h | 5.42 ± 0.84 h | 11.2 ± 0.13 h | 5.84 ± 0.99 h
MSNTPIELKGSSFTLSVVHLHEAEPKVIHQALEDKIAQAPAFLKHAPVVLNVSALEDPVNWSAMHKAVSATGLRVIGVSGCKDAQLKAEIEKMGLPILTEGKEKAPRPAPTPQAPAQNTTPVTKTRLIDTPVRSGQRIYAPQCDLIVTSHVSAGAELIADGNIHVYGMMRGRALAGASGDRETQIFCTNLMAELVSIAGEYWLSDQIPAEFYGKAARLQLVENALTVQPLN | 5 ± 0.28 h | 5.32 ± 0.053 h | 4.34 ± 0.23 h | 2.977 ± 0.015 h | 5.72 ± 0.27 h | 9.85 ± 0.83 h | 11.2 ± 1 h | 5.53 ± 0.29 h | 5.84 ± 0.27 h | 5.25 ± 0.7 h | 8.75 ± 0.6 h | 5.44 ± 0.24 h
MKSVLKVSLAALTLAFAVSSHAADKKLVVATDTAFVPFEFKQGDKYVGFDVDLWAAIAKELKLDYELKPMDFSGIIPALQTKNVDLALAGITITDERKKAIDFSDGYYKSGLLVMVKANNNDVKSVKDLDGKVVAVKSGTGSVDYAKANIKTKDLRQFPNIDNAYMELGTNRADAVLHDTPNILYFIKTAGNGQFKAVGDSLEAQQYGIAFPKGSDELRDKVNGALKTLRENGTYNEIYKKWFGTEPK [P0AEQ3] | 6.03 ± 2.1 h | 6.84 ± 0.17 h | 6.44 ± 0.68 h | 3.38 ± 0.19 h | 6.48 ± 0.26 h | 11.8 ± 1.3 h | 14.08 ± 0.14 h | 4.537 ± 0.04 h | 6.824 ± 0.065 h | 6.43 ± 0.32 h | 13.1 ± 0.91 h | 6.13 ± 0.34 h
MLSRHINYFLAVAEHGSFTRAASALHVSQPALSQQIRQLEESLGVPLFDRSGRTIRLTDAGEVWRQYASRALQELGAGKRAIHDVADLTRGSLRIAVTPTFTSYFIGPLMADFYARYPSITLQLQEMSQEKIEDMLCRDELDVGIAFAPVHSPELEAIPLLTESLALVVAQHHPLAVHEQVALSRLHDEKLVLLSAEFATREQIDHYCEKAGLHPQVVIEANSISAVLELIRRTSLSTLLPAAIATQHDGLKAISLAPPLLERTAVLLRRKNSWQTAAAKAFLHMALDKCAVVGGNESR | – | – | – | 2.02 ± 0.18 h | 4.75 ± 0.2 h | 6.21 h | 5.16 ± 2 h | 5.07 ± 0.31 h | 6.84 h | – | 12.6 h | 5.54 h
MALPILLDCDPGHDDAIAIVLALASPELDVKAITSSAGNQTPEKTLRNVLRMLTLLNRTDIPVAGGAVKPLMRELIIADNVHGESGLDGPALPEPTFAPQNCTAVELMAKTLRESAEPVTIVSTGPQTNVALLLNSHPELHSKIARIVIMGGAMGLGNWTPAAEFNIYVDPEAAEIVFQSGIPVVMAGLDVTHKAQIHVEDTERFRAIGNPVSTIVAELLDFFLEYHKDEKWGFVGAPLHDPCTIAWLLKPELFTSVERWVGVETQGKYTQGMTVVDYYYLTGNKPNATVMVDVDRQGFVDLLADRLKFYA | 4.24 ± 0.14 h | 4.66 ± 1 h | 4.236 ± 0.027 h | 3.02 ± 0.045 h | 5.85 ± 0.58 h | 10.5 ± 0.72 h | 11.3 ± 0.33 h | 4.982 ± 0.041 h | 4.291 ± 0.039 h | 4.76 ± 0.19 h | 7.25 ± 0.29 h | 5.5168 ± 0.0052 h
MSQIFAYCRISTLDQTTENQRREIESAGFKIKPQQIIEEHISGSAATSERPGFNRLLARLKCGDQLIVTKLDRLGCNAMDIRKTVEQLTETGIRVHCLALGGIDLTSPTGKMMMQVISAVAEFERDLLLERTHSGIVRARGAGKRFGRPPVLNEEQKQAVFERIKSGVSISAIAREFKTSRQTILRAKAKLQTPDI | – | – | 1.43 h | 1.59 h | – | 4.26 h | – | 5.84 ± 0.17 h | 3.81 h | – | – | –
